This is an account of results in paper PMC4216079, “Phenotypic and Enzymatic Comparative Analysis of the KPC Variants, KPC-2 and Its Recently Discovered Variant KPC-15” (PLoS ONE, 2014).

The target in one series is KPC-2 (Klebsiella pneumoniae, UniProt Q9F663). The series is described as follows: steady-state hydrolysis, diode array spectrophotometer. The note with it: 10 mM PBS, pH 7.4, 25°C; 10 nM enzyme.
Series [1] has as its system CC(C)(O/N=C(\C(=O)N[C@@H]1C(=O)N2C(C(=O)[O-])=C(C[n+]3ccccc3)CS[C@H]12)c1csc(N)n1)C(=O)O. The series is described as follows: purified protein. The note with it: 10 mM PBS, pH 7.4, 25°C, 10 nM enzyme.
In series [2] the test system is CO/N=C(\C(=O)N[C@@H]1C(=O)N2C(C(=O)O)=C(COC(C)=O)CS[C@H]12)c1csc(N)n1. Description: purified protein. The settings on record: 10 mM PBS, pH 7.4, 25°C, 10 nM enzyme.
Series [3] relates to C[C@@H](O)[C@H]1C(=O)N2C(C(=O)O)=C(SCCN=CN)C[C@H]12. The series is described as follows: purified protein. The note with it: 10 mM PBS, pH 7.4, 25°C, 10 nM enzyme.
Series [4] concerns C[C@@H](O)[C@H]1C(=O)N2C(C(=O)O)=C(S[C@@H]3CN[C@H](C(=O)N(C)C)C3)[C@H](C)[C@H]12. Description: purified protein. The note with it: 10 mM PBS, pH 7.4, 25°C, 10 nM enzyme.
Series [5] concerns Cc1nnc(SCC2=C(C(=O)O)N3C(=O)[C@@H](NC(=O)Cn4cnnn4)[C@H]3SC2)s1. Description: purified protein. The note with it: 10 mM PBS, pH 7.4, 25°C, 10 nM enzyme.

What is called Km is the concentration of substrate that gives half-maximal velocity. As to `O=C(Cc1cccs1)N[C@@H]1C(=O)N2C(C(=O)O)=C(/C=C/c3ccc([N+](=O)[O-])cc3[N+](=O)[O-])CS[C@H]12` [nitrocefin], the Michaelis constant (Km) at KPC-2 was found to be 6.5 ± 2.4 µM.

For orientation: kcat means the maximal rate divided by the concentration of active sites. As a reminder, the kcat/Km is the second-order rate constant that governs catalysis at low substrate concentration. Consider KPC-2 (Klebsiella pneumoniae), for which the Km in series [1] turned out to be 217 ± 6 µM; in series [2], 124 ± 6 µM; in series [3] it was 21 ± 2 µM; in series [4], 16.2 ± 3.1 µM; in series [5], 16 ± 1 µM. For the same compound, the kcat in series [1] is 0.59 ± 0.83 s⁻¹; in series [2], 52 ± 6 s⁻¹; in series [3], 20 ± 1 s⁻¹; in series [4] it was 4.1 ± 0.99 s⁻¹; in series [5], 44 ± 2 s⁻¹. The catalytic efficiency (kcat/Km) in series [1] was determined as 2700 ± 560 M⁻¹ s⁻¹; in series [3], 950000 ± 650000 M⁻¹ s⁻¹; in series [4], 250000 ± 61000 M⁻¹ s⁻¹; in series [5] it was 2.8e+06 ± 1e+06 M⁻¹ s⁻¹.
